Targets include ZmHsf17-K142A (Zea mays, UniProt A0A5J6CYG6 1-373, K142A); ZmHsf17-T109A (Zea mays, UniProt A0A5J6CYG6 1-373, T109A); ZmHsf17-R105A (Zea mays, UniProt A0A5J6CYG6 1-373, R105A).
Common to all, as to experiment: EMSA; EMSA/Gel-Shift buffer (Beyotime GS009; composition, salt and pH not stated), 10 uL, 25 C 30 min; 6% native PAGE in 0.5x TBE at 4 C
Holding throughout (settings): protein: recombinant; tags: 6xHis (stated C-terminal; pET-30a); chain copies: 3; label: biotin; blunt
A general note: Mobility shift assays separate free from complexed probe on a gel.

Sequence of ZmHsf17-K142A (A0A5J6CYG6 entry or part of it K142A | K142A K142A): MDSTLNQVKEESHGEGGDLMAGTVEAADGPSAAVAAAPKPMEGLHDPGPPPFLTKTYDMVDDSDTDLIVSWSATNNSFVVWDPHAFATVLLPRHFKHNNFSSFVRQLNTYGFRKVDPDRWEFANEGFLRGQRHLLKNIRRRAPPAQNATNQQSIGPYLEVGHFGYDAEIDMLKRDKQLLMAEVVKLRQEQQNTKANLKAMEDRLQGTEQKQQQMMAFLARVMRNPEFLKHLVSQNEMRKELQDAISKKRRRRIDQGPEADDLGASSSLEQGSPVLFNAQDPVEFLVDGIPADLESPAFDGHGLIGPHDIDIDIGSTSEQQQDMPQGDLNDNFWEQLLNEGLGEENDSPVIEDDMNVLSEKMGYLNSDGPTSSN
Sequence of ZmHsf17-T109A (A0A5J6CYG6 entry or part of it T109A | T109A T109A): as the sequence (A0A5J6CYG6 entry or part of it K142A | K142A K142A) above, with T109A, A142K counted along it
Sequence of ZmHsf17-R105A (A0A5J6CYG6 entry or part of it R105A | R105A R105A): as the sequence (A0A5J6CYG6 entry or part of it K142A | K142A K142A) above, with R105A, A142K counted along it

B1: ZmPAH1-HSE2 (dsDNA)
DNA 1: CAGCGTCACATGACGGGAATTTTCACGTCTTTTCAGCCCT
DNA 2: AGGGCTGAAAAGACGTGAAAATTCCCGTCATGTGACGCTG
As to B1, the binding result is “binds” in the data set with ZmHsf17-K142A, “binds” in the data set with ZmHsf17-T109A and “no binding” with ZmHsf17-R105A.

Source of the values: PMC12251660, “The Structural Deciphering of the α3 Helix Within ZmHsfA2’S DNA-Binding Domain for the Recognition of Heat Shock Elements in Maize”.
